Assay [1] concerns the target T1, human HER2 on T6-17 cells (human, UniProt P04626 23-1255).
T1 construct: whole, on cells; also called HER2/neu; human epidermal growth factor receptor 2
Briefly: FACS on T6-17 cells expressing human HER2, detected by anti-his tag and secondary antibodies; control (anti-his tag and secondary antibodies only) has Geo mean 3.99.

In assay [2] the target is T2, human EGFR on NE91 cells (human, UniProt P00533 25-1210).
T2 construct: whole, on cells; also called epidermal growth factor receptor
The assay is described as follows: FACS, 100 ug S22-Fc on 1x10^5 cells, anti-His detection. Here is the method: FACS analysis was used to detect binding of S22-Fc to HER2-expressing cell lines. Purified S22-Fc was used in FACS experiments to stain cells with different expression levels of HER2 and EGFR. Initially, 1×10⁵ cells were incubated with 100 μg S22-Fc for 30 minutes on ice. The cells were then washed and incubated with his-tag-specific rabbit antisera and secondary Alexa488-conjugated anti-rabbit antibodies, used sequentially. As a negative control, parallel cell preparations were exposed to only his-tag-specific rabbit antisera and secondary antibodies.
(In general: In flow cytometry, cells or beads pass a laser one at a time.)

Assay [3] has as its target T1, human HER2 on T6-17 cells. The assay is described as follows: FACS on T6-17 cells.
Assay [4] deals with T2, human EGFR on NE91 cells. The assay is described as follows: FACS on NE91 cells.

The values that follow come from patent US20140178375A1 (TRUSTEES OF THE UNIVERSITY PF PENNSYLVANIA, published 2014).

B1: S22-Fc (Fc fusion)
chain: MAYCFPDEEGACYGGGGGSDKTHTCPPCPAPELLGGPSVFLFPPKPKDTLMISRTPEVTCVVVDVSHEDPEVKFNWYVDGVEVHNAKTKPREEQYNSTYRVVSVLTVLHQDWLNGKEYKCKVSNKALPAPIEKTISKAKGQPREPQVYTLPPSRDELTKNQVSLTCLVKGFYPSDIAVEWESNGQPENNYKTTPPVLDSDGSFFLYSKLTVDKSRWQQGNVFSCSVMHEALHNHYTQKSLSLSLEHHHHHH
notes: S22 peptide, glycine-serine linker, human IgG1 Fc (hinge part, CH2, CH3) and C-terminal His tag; Expressed in E. coli and purified on Ni-sepharose; also called S22-Fc fusion protein
On to B1, for which the “FACS Geo mean” value in assay [1] came to 27.2. In addition, the binding result with human EGFR on NE91 cells [2] is reported as “binds”.

B2: S22-FcT322A (Fc fusion)
chain: MAYCFPDEEGACYGGGGGSDKTHTCPPCPAPELLGGPSVFLFPPKPKDTLMISRTPEVTCVVVDVSHEDPEVKFNWYVDGVEVHNAKTKPREEQYNSAYRVVSVLTVLHQDWLNGKEYKCKVSNKALPAPIEKTISKAKGQPREPQVYTLPPSRDELTKNQVSLTCLVKGFYPSDIAVEWESNGQPENNYKTTPPVLDSDGSFFLYSKLTVDKSRWQQGNVFSCSVMHEALHNHYTQKSLSLSLEHHHHHH
For the molecule B2, the binding result (in assay [3]; with human EGFR on NE91 cells [4]) was “binds” each time.

B3: LS22FcT322AG7 (Fc fusion)
chain: MLCGGGGYCFPDEEGACYGGGGGSDKTHTCPPCPAPELLGGPSVFLFPPKPKDTLMISRTPEVTCVVVDVSHEDPEVKFNWYVDGVEVHNAKTKPREEQYNSAYRVVSVLTVLHQDWLNGKEYKCKVSNKALPAPIEKTISKAKGQPREPQVYTLPPSRDELTKNQVSLTCLVKGFYPSDIAVEWESNGQPENNYKTTPPVLDSDGSFFLYSKLTVDKSRWQQGNVFSCSVMHEALHNHYTQKSLSLSLEHHHHHH
notes: It has the N-terminal MLCGGGG before the S22 peptide, the T322A Fc and a His tag; also called S22-FcT322A#2; S22FcT322A#2
Turning to B3, the “FACS Geo mean” value in assay [1] was 39.1. In the assay with human EGFR on NE91 cells [4], the binding result is listed as “binds”.

B4: LS22FcT322AS7 (Fc fusion)
S22 peptide-Fc fusion chain with C-terminal His tag: MLCGGGSYCFPDEEGACYGGGGGSDKTHTCPPCPAPELLGGPSVFLFPPKPKDTLMISRTPEVTCVVVDVSHEDPEVKFNWYVDGVEVHNAKTKPREEQYNSAYRVVSVLTVLHQDWLNGKEYKCKVSNKALPAPIEKTISKAKGQPREPQVYTLPPSRDELTKNQVSLTCLVKGFYPSDIAVEWESNGQPENNYKTTPPVLDSDGSFFLYSKLTVDKSRWQQGNVFSCSVMHEALHNHYTQKSLSLSLEHHHHHH
For the molecule B4, the “FACS Geo mean” value in assay [1] was 28.7.

B5: LS22FcG7 (Fc fusion)
chain: MLCGGGGYCFPDEEGACYGGGGGSDKTHTCPPCPAPELLGGPSVFLFPPKPKDTLMISRTPEVTCVVVDVSHEDPEVKFNWYVDGVEVHNAKTKPREEQYNSTYRVVSVLTVLHQDWLNGKEYKCKVSNKALPAPIEKTISKAKGQPREPQVYTLPPSRDELTKNQVSLTCLVKGFYPSDIAVEWESNGQPENNYKTTPPVLDSDGSFFLYSKLTVDKSRWQQGNVFSCSVMHEALHNHYTQKSLSLSLEHHHHHH
notes: Wild type Fc fragment with the N-terminal MLCGGGG before the S22 peptide, and a His tag
For B5, in assay [1], the “FACS Geo mean” value was found to be 51.
